The assay concerns the target human transferrin receptor (TFR) on Raji cells (human) (UniProt P02786). Kind of assay: FACS on Raji cells, secondary antibody without IgG1 clone [CONTINUED].

human transferrin receptor (TFR) on Raji cells (human), sequence (P02786 whole entry): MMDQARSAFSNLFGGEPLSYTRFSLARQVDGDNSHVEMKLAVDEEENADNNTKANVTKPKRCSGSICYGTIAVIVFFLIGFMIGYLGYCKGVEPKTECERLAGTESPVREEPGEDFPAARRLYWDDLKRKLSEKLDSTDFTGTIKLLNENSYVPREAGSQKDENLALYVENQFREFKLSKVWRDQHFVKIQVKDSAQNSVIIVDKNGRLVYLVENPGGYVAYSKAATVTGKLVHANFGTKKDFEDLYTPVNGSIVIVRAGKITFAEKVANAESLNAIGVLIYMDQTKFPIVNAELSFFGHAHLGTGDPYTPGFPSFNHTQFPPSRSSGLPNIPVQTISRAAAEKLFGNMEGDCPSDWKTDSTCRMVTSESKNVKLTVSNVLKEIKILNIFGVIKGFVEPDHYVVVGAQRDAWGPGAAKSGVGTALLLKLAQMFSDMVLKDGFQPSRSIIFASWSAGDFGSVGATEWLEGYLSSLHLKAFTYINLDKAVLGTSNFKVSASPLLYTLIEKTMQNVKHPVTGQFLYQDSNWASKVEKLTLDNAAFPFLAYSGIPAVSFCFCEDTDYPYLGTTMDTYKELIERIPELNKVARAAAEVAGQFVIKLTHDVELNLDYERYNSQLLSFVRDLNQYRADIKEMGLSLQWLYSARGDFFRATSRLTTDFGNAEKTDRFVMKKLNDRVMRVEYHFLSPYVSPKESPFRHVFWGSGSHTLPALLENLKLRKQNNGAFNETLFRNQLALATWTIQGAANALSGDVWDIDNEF

Substance ANTI-FAB ALEXA FLUOR 647 (antibody) registered a TFR gate, percent of cells of 19.1.

The values are drawn from patent US20210147566A1.
